# What was measured:
# Type in all cases: in vivo
# [1] = system: Arabidopsis thaliana T1 plants; assay: Mesotrione tolerance of transgenic Arabidopsis thaliana T1 plants (spray, bleached leaf area grade, damage score); design: Scores: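 damage score 0-100 computed as Σ(N×S)/(T×M)×100 over grades 0-3 with higher meaning more damage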; details: Arabidopsis thaliana T1 plants; for Grade 0 (classification and statistics of the grade of pesticide damage; number of plants) / Grade 1 (classification and statistics of the grade of pesticide damage; number of plants) / Grade 2 (classification and statistics of the grade of pesticide damage; number of plants) / Grade 3 (classification and statistics of the grade of pesticide damage; number of plants): 16 plants
# Summary of the method: (§1)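 Damage was assessed by bleaching grade (0 none; 1 <50%; 2 >50%; 3 100% of leaf area) one week after spraying. Sprays on 18-day-old T1 and wild-type plants used field-rate multiples: topramezone 25–200, isoxaflutole 35–280, mesotrione 52.5–420 g ai/ha.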
# [2] = system: Arabidopsis thaliana T1 plants; assay: Isoxaflutole tolerance of transgenic Arabidopsis thaliana T1 plants (spray, bleached leaf area grade, damage score); design: Scores (pesticide damage): scale not given here; details: spray, Arabidopsis thaliana T1 plants; for Classification and statistics of the grade of pesticide damage: Grade 0 (number of plants) / Classification and statistics of the grade of pesticide damage: Grade 1 (number of plants) / Classification and statistics of the grade of pesticide damage: Grade 2 (number of plants) / Classification and statistics of the grade of pesticide damage: Grade 3 (number of plants): 16 plants
# Summary of the method: as §1
# [3] = system: Arabidopsis thaliana T1 plants; assay: Topramezone tolerance of transgenic Arabidopsis thaliana T1 plants (spray, bleached leaf area grade, damage score); details: 7 DAT, Table 4; for Classification and statistics of the grade of pesticide damage: Grade 0 / Classification and statistics of the grade of pesticide damage: Grade 1 / Classification and statistics of the grade of pesticide damage: Grade 2 / Classification and statistics of the grade of pesticide damage: Grade 3: number of plants; for Scores: pesticide damage score 0-100
# Summary of the method: as §1
# [4] = isoxaflutole 35 g ai/ha (0.5x field concentration)
# [5] = isoxaflutole 70 g ai/ha (1x field concentration)
molecule,measurement,setting,value
"MsHPPDm-F372A-F383W-02: nucleotide sequence encoding Medicago sativa HPPD with F372A+F383W; vector DBN11737 (nucleic acid, MsHPPDm-F372A-F383W-02 Nucleotide Sequence, vector DBN11737) DNA: ATGGCTATTGAAACCGAAACACAAACTCAGACTGGATTTAAACTGGTAGGGTTCAAGAATTTCGTTAGGGCTAATCCCAAGTCTGATCGTTTTAAGGTCAAGAGGTTCCACCACGTGGAGTTCTGGTGCACTGATGCAACCAACACGGCGCGGCGTTTTTCACATGGTCTTGGAATGCCTATTGTTGCAAAATCCGACCTCTCCACGGGGAACCAAACACACGCCTCTTACCTGCTACGGAGTGGTGACTTGAACTTCCTCTTCAGCGCCGCCTACTCACCCTCCATATCGTTGTCTTCACCATCCTCGACCGCAGCAATTCCTACATTTTCTGCGAGCAACTGCTTCTCTTTCTCTGCCAGTCATGGCCTCGCCGTCAGAGCAGTGGCCGTTGAAGTAGAGGATGCTGAACTTGCTTTTACAACTTCAGTGAATAATGGAGCAATACCGAGCAGTCCGCCGGTCATACTTGAGAATCATGTGAAGCTAGCGGAGGTGAGGCTTTATGGGGACGTCGTTTTAAGATATGTCAGCTACAATGATCCAAACCCCAATCAAAATCCAAATTTGTTGTTCCTTCCTGGCTTCGAGCGTGTTAGCGATGAATCTTCAAACTCTTCACTGGATTTTGGAATCAGACGGTTGGATCATGCTGTTGGAAATGTTCCTGAACTCTCGAGCGCTGTGAAATATGTGAAGGACTTCACCGGTTTTCATGAATTTGCTGAGTTTACTGCAGAAGATGTGGGTACATCAGAGAGTGGCTTGAATTCCGTGGTGCTCGCCAACAACGAGGAGACTGTACTCTTACCAATGAATGAGCCAGTCTATGGCACCAAGCGTAAATCTCAAATTGAGACATATTTGGAGCACAATGAAGGAGCTGGACTTCAGCATCTCGCGCTGAAGAGTGAGGACATCTTCCGCACCCTACGGGAGATGAGGAAAAGAAGTGGTGTTGGTGGGTTTGAATTCATGCCATCACCTCCTGTCACCTACTACAGGAACCTGAAGAACAGAGTTGGTGATGTACTTTCGGACGAGCAGATAAAGGAATGTGAAGAGTTGGGGATTTTGGTTGATAGAGATGATCAAGGAACACTCCTGCAGATTGCCACAAAACCAATTGGCGACCGCCCCACTATCTGGATAGAGATCATCCAGAGGGTGGGGTGCATGCTCAAAGACGAGGAAGGGAAGGAGTACCAGAAGGGCGGCTGTGGTGGTTTTGGGAAAGGAAACTTTTCTGAGTTATTCAAATCAATTGAAGAGTATGAGAAGACGCTTGAAACGCGTCGCACTGCTTGA",Resistance evaluation,[1]; mesotrione 52.5 g ai/ha,Moderately
same,Scores,[1]; mesotrione 52.5 g ai/ha,33
same,Grade 0 (classification and statistics of the grade of pesticide damage; number of plants),[1]; mesotrione 52.5 g ai/ha,3
same,Grade 1 (classification and statistics of the grade of pesticide damage; number of plants),[1]; mesotrione 52.5 g ai/ha,10
same,Grade 2 (classification and statistics of the grade of pesticide damage; number of plants),[1]; mesotrione 52.5 g ai/ha,3
same,Grade 3 (classification and statistics of the grade of pesticide damage; number of plants),[1]; mesotrione 52.5 g ai/ha,0
same,Resistance evaluation,[1]; mesotrione 105 g ai/ha,Non-resistant
same,Scores,[1]; mesotrione 105 g ai/ha,79
same,Grade 0 (classification and statistics of the grade of pesticide damage; number of plants),[1]; mesotrione 105 g ai/ha,0
same,Grade 1 (classification and statistics of the grade of pesticide damage; number of plants),[1]; mesotrione 105 g ai/ha,0
same,Grade 2 (classification and statistics of the grade of pesticide damage; number of plants),[1]; mesotrione 105 g ai/ha,10
same,Grade 3 (classification and statistics of the grade of pesticide damage; number of plants),[1]; mesotrione 105 g ai/ha,6
same,Resistance evaluation,[2]; [4],Moderately
same,Scores (pesticide damage),[2]; [4],27
same,Classification and statistics of the grade of pesticide damage: Grade 0 (number of plants),[2]; [4],5
same,Classification and statistics of the grade of pesticide damage: Grade 1 (number of plants),[2]; [4],9
same,Classification and statistics of the grade of pesticide damage: Grade 2 (number of plants),[2]; [4],2
same,Classification and statistics of the grade of pesticide damage: Grade 3 (number of plants),[2]; [4],0
same,Resistance evaluation,[2]; [5],Moderately
same,Scores (pesticide damage),[2]; [5],33
same,Classification and statistics of the grade of pesticide damage: Grade 0 (number of plants),[2]; [5],2
same,Classification and statistics of the grade of pesticide damage: Grade 1 (number of plants),[2]; [5],12
same,Classification and statistics of the grade of pesticide damage: Grade 2 (number of plants),[2]; [5],2
same,Classification and statistics of the grade of pesticide damage: Grade 3 (number of plants),[2]; [5],0
same,Classification and statistics of the grade of pesticide damage: Grade 0,[3]; topramezone 25 g ai/ha (1×),6
same,Classification and statistics of the grade of pesticide damage: Grade 1,[3]; topramezone 25 g ai/ha (1×),9
same,Classification and statistics of the grade of pesticide damage: Grade 2,[3]; topramezone 25 g ai/ha (1×),1
same,Classification and statistics of the grade of pesticide damage: Grade 3,[3]; topramezone 25 g ai/ha (1×),0
same,Classification and statistics of the grade of pesticide damage: Grade 0,[3]; topramezone 100 g ai/ha (4×),0
same,Classification and statistics of the grade of pesticide damage: Grade 1,[3]; topramezone 100 g ai/ha (4×),8
same,Classification and statistics of the grade of pesticide damage: Grade 2,[3]; topramezone 100 g ai/ha (4×),6
same,Classification and statistics of the grade of pesticide damage: Grade 3,[3]; topramezone 100 g ai/ha (4×),2
same,Scores,[3]; topramezone 25 g ai/ha (1×),23
same,Scores,[3]; topramezone 100 g ai/ha (4×),54
same,Resistance evaluation,[3]; topramezone 25 g ai/ha (1×),moderately
same,Resistance evaluation,[3]; topramezone 100 g ai/ha (4×),poorly
